Results taken from paper PMC9358478 (The Journal of Biological Chemistry, 2022).

Target: T1, full-length recombinant human TG2 (human, UniProt P21980 1-687)
T1 sequence: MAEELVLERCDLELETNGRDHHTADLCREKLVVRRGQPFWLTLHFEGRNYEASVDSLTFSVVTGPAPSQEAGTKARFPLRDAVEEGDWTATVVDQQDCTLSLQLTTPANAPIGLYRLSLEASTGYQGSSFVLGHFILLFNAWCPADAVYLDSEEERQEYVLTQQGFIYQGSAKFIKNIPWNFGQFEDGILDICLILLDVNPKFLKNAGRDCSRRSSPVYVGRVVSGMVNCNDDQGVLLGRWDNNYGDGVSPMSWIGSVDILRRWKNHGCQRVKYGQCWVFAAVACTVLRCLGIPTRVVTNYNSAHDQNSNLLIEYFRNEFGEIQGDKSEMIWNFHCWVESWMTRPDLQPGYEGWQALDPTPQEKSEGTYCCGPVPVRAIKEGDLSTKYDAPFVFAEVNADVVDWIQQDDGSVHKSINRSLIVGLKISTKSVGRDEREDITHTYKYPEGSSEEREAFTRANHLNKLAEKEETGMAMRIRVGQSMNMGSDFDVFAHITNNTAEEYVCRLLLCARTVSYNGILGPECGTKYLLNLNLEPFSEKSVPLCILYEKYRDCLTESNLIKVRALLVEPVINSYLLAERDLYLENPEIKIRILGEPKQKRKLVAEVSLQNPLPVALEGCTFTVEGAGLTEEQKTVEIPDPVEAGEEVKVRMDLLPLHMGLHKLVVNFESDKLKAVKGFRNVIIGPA
Test: co-IP

B1: full-length recombinant human ILK (natural protein)
chain: MDDIFTQCREGNAVAVRLWLDNTENDLNQGDDHGFSPLHWACREGRSAVVEMLIMRGARINVMNRGDDTPLHLAASHGHRDIVQKLLQYKADINAVNEHGNVPLHYACFWGQDQVAEDLVANGALVSICNKYGEMPVDKAKAPLRELLRERAEKMGQNLNRIPYKDTFWKGTTRTRPRNGTLNKHSGIDFKQLNFLTKLNENHSGELWKGRWQGNDIVVKVLKVRDWSTRKSRDFNEECPRLRIFSHPNVLPVLGACQSPPAPHPTLITHWMPYGSLYNVLHEGTNFVVDQSQAVKFALDMARGMAFLHTLEPLIPRHALNSRSVMIDEDMTARISMADVKFSFQCPGRMYAPAWVAPEALQKKPEDTNRRSADMWSFAVLLWELVTREVPFADLSNMEIGMKVALEGLRPTIPPGISPHVCKLMKICMNEDPAKRPKFDMIVPILEKMQDK
- binding result: binds
